Data set [1] has as its target maize leaf ferredoxin-NADP+ reductase R235Q (maize).
Data set [2] concerns the target maize leaf ferredoxin-NADP+ reductase R244Q (maize).
For data set [3], the target named is maize leaf ferredoxin-NADP+ reductase Y314S (maize).
Data set [4] deals with maize leaf ferredoxin-NADP+ reductase, wild-type (maize).
In data set [5] the target is maize leaf ferredoxin-NADP+ reductase R235Q (maize). Description: ITC; 500 uM Fd I in the syringe titrated into 50 uM L-FNR in the cell; 50 mM Tris/HCl pH 7.5, no NaCl, 298 K; one set of independent binding sites; 0 uM NADP+.
For data set [6], the target named is maize leaf ferredoxin-NADP+ reductase R244Q (maize). Described as above.
Data set [7] addresses maize leaf ferredoxin-NADP+ reductase Y314S (maize). The description is as above.
In data set [8] the target is maize leaf ferredoxin-NADP+ reductase, wild-type (maize). The description is as above.
In data set [9] the target is maize leaf ferredoxin-NADP+ reductase R235Q (maize). In words: ITC; 500 uM Fd I in the syringe titrated into 50 uM L-FNR in the cell; 50 mM Tris/HCl pH 7.5, no NaCl, 298 K; one set of independent binding sites; 50 uM NADP+.
Data set [10] concerns the target maize leaf ferredoxin-NADP+ reductase R244Q (maize). Described as above.
For data set [11], the target named is maize leaf ferredoxin-NADP+ reductase Y314S (maize). The data set is described as above.
In data set [12] the target is maize leaf ferredoxin-NADP+ reductase, wild-type (maize). Described as above.
Data set [13] has as its target maize leaf ferredoxin-NADP+ reductase R235Q (maize). Description: ITC; 500 uM Fd I in the syringe titrated into 50 uM L-FNR in the cell; 50 mM Tris/HCl pH 7.5, no NaCl, 298 K; one set of independent binding sites; 500 uM NADP+.
The target in data set [14] is maize leaf ferredoxin-NADP+ reductase R244Q (maize). The data set is described as above.
In data set [15] the target is maize leaf ferredoxin-NADP+ reductase Y314S (maize). The description is as above.
The target in data set [16] is maize leaf ferredoxin-NADP+ reductase, wild-type (maize). The data set is described as above.
Another data set deals with T1, maize leaf FNR (L‐FNR) (Zea mays, UniProt Q9SLP6).
T1 construct: gene L-FNRI; recombinant mature leaf FNR, FAD flavoprotein, C-terminal Tyr314
T1 sequence (Q9SLP6 42-355): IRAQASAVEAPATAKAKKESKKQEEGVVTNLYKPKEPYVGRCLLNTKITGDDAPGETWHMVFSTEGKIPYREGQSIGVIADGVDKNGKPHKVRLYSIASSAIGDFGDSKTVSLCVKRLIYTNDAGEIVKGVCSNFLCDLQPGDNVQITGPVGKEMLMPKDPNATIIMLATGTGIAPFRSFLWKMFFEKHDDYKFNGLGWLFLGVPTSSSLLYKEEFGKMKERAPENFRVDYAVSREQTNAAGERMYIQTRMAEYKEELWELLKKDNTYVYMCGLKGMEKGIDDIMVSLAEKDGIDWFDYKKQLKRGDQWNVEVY
In words: ITC of Fd I binding to FNR in presence of ligand; Fd-affinity chromatography. The note with it: 0-500 μM NADP+ (ITC); 50 mM Tris/HCl, pH 7.5; 298 K; allosteric on Fd binding.

Substrate in data set [17]: NC(=O)C1=CN([C@@H]2O[C@H](COP(=O)(O)OP(=O)(O)OC[C@H]3O[C@@H](n4cnc5c(N)ncnc54)[C@H](OP(=O)(O)O)[C@@H]3O)[C@@H](O)[C@H]2O)C=CC1
Description: NADPH-dependent diaphorase assay. The settings on record: DCPIP as electron acceptor. In kind it is biochemical, Zea mays. The source says: NADPH-dependent diaphorase assay on maize leaf FNR (L‐FNR)

Residue numbers refer to the chain shown, from its start. Numbers in names are those of the source.

With “maize leaf ferredoxin I (from UniProt P27787 53-150) (natural protein)”, the Km for Fd in NADPH-dependent cyt c reduction, at 50 uM, 250 uM, 500 uM and 1 mM NADPH (0.30 to 5.0 uM) in data set [1] is 5 µM. The Km for Fd in NADPH-dependent cyt c reduction, at 50 uM, 250 uM, 500 uM and 1 mM NADPH (0.75 to 6.9 uM) in [2] stood at 6.9 µM. In data set [3], the Km for Fd in NADPH-dependent cyt c reduction, at 50 uM, 250 uM and 500 uM NADPH (17, 13, 18 uM; not determined at 1 mM) was determined as 18 µM. Also, the apparent Km for Fd in NADPH-dependent cyt c reduction, at 50 uM, 250 uM, 500 uM and 1 mM NADPH (3.5 to 44 uM) in [4] was determined as 44 µM. The Kd in [5] was found to be 870 nM; in [6], 760 nM; in [7] it was 2200 nM; in [8] it was 1200 nM; in data set [9], 780 nM; in data set [10], 790 nM. Also, the Kd in data set [11] worked out at 2600 nM; in [12], 1600 nM; in [13], 1300 nM; in [14], 1100 nM; in data set [15] it was 2300 nM; in data set [16] it was 3700 nM. For the same molecule, the dH in [5] was 8.3 kcal/mol; in data set [6] it was 8.3 kcal/mol; in [7], 5.6 kcal/mol; in data set [8] it was 9.8 kcal/mol; in data set [9], 7.3 kcal/mol; in [10], 7.4 kcal/mol. In addition, the dH was 4.3 kcal/mol in [11]; 8.8 kcal/mol in data set [12]; 6.3 kcal/mol in data set [13]; 5.8 kcal/mol in data set [14]; 3.6 kcal/mol in [15]; 6.7 kcal/mol in data set [16]. Also, the stoichiometry N turned out to be 0.7 in data set [5]; 0.7 in [6]; 0.7 in data set [7]; 0.7 in [8]; 0.7 in data set [9]; 0.8 in data set [10]. In addition, the stoichiometry N in data set [11] was 0.7; in data set [12] it was 0.7; in data set [13], 0.9; in data set [14], 1; in [15], 0.7; in data set [16], 0.8.
`NC(=O)c1ccc[n+]([C@@H]2O[C@H](COP(=O)(O)OP(=O)(O)OC[C@H]3O[C@@H](n4cnc5c(N)ncnc54)[C@H](OP(=O)(O)O)[C@@H]3O)[C@@H](O)[C@H]2O)c1` [NADP^+]: the “ITC of Fd I binding to FNR in presence of ligand; Fd-affinity chromatography” value at maize leaf FNR (L‐FNR) was “The resulting dissociation constant (K d) increased by addition of NADP^+ into the titration reaction”.

B1: maize leaf FNR (L‐FNR) (Zea mays) (protein)
chain: T1 sequence (Q9SLP6 42-355)
notes: recombinant mature leaf FNR, FAD flavoprotein, C-terminal Tyr314
As to B1, in [17], the Michaelis-Menten constant (Km) was determined as 46 ± 3 µM and the turnover number (kcat) is 76 ± 14 s⁻¹.

B2: maize leaf FNR (L‐FNR) (Zea mays; Y355S) (protein)
chain: T1 sequence (Q9SLP6 42-355) with Y314S
notes: as for B1
In the case of B2, in [17], the Michaelis constant (Km) is 0.27 ± 0.08 µM and the kcat was 41 ± 6 s⁻¹.

B3: maize leaf FNR (L‐FNR) (Zea mays; R276Q) (protein)
chain: T1 sequence (Q9SLP6 42-355) with R235Q
notes: as for B1
As to B3, in data set [17], the Michaelis constant (Km) worked out at 500 ± 120 µM and the kcat was 60 ± 7 s⁻¹.

B4: maize leaf FNR (L‐FNR) (Zea mays; R285Q) (protein)
chain: T1 sequence (Q9SLP6 42-355) with R244Q
notes: as for B1
Take B4: in data set [17], the Michaelis-Menten constant (Km) was 310 ± 60 µM and the catalytic constant (kcat) is 139 ± 13 s⁻¹.

The values are drawn from publication PMC6886308, “NADP(H) allosterically regulates the interaction between ferredoxin and ferredoxin‐NADP^+ reductase” (FEBS Open Bio, 2019).
